Values quoted from earlier work as cited in publication PMC3024536.

Target: CD8αα (Mus musculus) (UniProt P01731)
Chain of UniProt P01731 (P01731 28-196): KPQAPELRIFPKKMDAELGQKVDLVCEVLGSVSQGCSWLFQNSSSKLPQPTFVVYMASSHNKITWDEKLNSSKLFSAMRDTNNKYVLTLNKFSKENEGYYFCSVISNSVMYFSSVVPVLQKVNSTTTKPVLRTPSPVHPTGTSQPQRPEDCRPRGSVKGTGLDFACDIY

Kd: 12 µM
Substance: thymus leukaemia antigen (TL) (from UniProt P14432)
